Results from paper PMC12412624, “Engineered Cas12j‐8 is a Versatile Platform for Multiplexed Genome Modulation in Mammalian Cells”.
Substitutions are numbered along the chain they refer to.

Legend:
[1] = tested on: T1, dCas12j-8 E535R E535R;D369A;E567A;D658A (bacteriophage (metagenome)); conditions: HEK293T cells; panel 1c (compare within a panel only); scale: mean GFP / mean GFP of wild type, printed, no background subtraction
T1 sequence: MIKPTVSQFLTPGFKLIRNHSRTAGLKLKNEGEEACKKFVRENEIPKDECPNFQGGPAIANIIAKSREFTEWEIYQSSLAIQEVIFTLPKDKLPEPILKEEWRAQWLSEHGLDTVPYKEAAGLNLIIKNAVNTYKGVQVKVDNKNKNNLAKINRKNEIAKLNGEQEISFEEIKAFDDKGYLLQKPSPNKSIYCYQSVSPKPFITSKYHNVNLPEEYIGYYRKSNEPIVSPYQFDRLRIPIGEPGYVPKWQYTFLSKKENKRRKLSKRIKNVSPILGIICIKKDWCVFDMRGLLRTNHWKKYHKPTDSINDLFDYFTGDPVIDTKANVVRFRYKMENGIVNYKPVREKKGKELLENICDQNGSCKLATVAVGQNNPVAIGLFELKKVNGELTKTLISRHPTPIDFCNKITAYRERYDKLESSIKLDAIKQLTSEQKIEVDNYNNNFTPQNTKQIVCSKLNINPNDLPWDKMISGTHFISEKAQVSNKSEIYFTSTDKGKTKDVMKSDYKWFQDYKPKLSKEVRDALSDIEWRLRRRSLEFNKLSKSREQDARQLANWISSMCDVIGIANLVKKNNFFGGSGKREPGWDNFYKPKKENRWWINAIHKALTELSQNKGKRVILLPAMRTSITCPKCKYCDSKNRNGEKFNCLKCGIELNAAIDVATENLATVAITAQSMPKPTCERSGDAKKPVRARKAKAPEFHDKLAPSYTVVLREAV

[2] = tested on: T2, dCas12j-8 E100R E100R;D369A;E567A;D658A (bacteriophage (metagenome)); conditions: HEK293T cells; panel 1c (compare within a panel only); scale: mean GFP / mean GFP of wild type, printed, no background subtraction
T2 sequence: T1 sequence with E100R, R535E

[3] = tested on: T3, dCas12j-8 D523R D523R;D369A;E567A;D658A (bacteriophage (metagenome)); conditions: HEK293T cells; panel 1c (compare within a panel only); scale: mean GFP / mean GFP of wild type, printed, no background subtraction
T3 sequence: T1 sequence with D523R, R535E

[4] = tested on: T4, dCas12j-8 E258R+D495R+D527R E258R;D495R;D527R;D369A;E567A;D658A (bacteriophage (metagenome)); conditions: HEK293T cells; panel 1e (compare within a panel only); scale: mean GFP / mean GFP of wild type, printed, no background subtraction
T4 sequence: T1 sequence with E258R, D495R, D527R, R535E

CUUUCAAGACUAAUAGAUUGCUCCUUACGAGGAGACACUCCCUAUCAGUGAUAGAG / TTNACTCCCTATCAGTGATAGAG / CTCTATCACTGATAGGGAGTNAA [TetO]
binding signal [1]: 0.495 | binding signal [2]: 0.834 | binding signal [3]: 1.32 | binding signal [4]: 3.63
